T1: G9a and GLP (Homo sapiens, UniProt Q96KQ7+Q9H9B1)
T1 sequence (Q96KQ7 2-1210 limits assumed): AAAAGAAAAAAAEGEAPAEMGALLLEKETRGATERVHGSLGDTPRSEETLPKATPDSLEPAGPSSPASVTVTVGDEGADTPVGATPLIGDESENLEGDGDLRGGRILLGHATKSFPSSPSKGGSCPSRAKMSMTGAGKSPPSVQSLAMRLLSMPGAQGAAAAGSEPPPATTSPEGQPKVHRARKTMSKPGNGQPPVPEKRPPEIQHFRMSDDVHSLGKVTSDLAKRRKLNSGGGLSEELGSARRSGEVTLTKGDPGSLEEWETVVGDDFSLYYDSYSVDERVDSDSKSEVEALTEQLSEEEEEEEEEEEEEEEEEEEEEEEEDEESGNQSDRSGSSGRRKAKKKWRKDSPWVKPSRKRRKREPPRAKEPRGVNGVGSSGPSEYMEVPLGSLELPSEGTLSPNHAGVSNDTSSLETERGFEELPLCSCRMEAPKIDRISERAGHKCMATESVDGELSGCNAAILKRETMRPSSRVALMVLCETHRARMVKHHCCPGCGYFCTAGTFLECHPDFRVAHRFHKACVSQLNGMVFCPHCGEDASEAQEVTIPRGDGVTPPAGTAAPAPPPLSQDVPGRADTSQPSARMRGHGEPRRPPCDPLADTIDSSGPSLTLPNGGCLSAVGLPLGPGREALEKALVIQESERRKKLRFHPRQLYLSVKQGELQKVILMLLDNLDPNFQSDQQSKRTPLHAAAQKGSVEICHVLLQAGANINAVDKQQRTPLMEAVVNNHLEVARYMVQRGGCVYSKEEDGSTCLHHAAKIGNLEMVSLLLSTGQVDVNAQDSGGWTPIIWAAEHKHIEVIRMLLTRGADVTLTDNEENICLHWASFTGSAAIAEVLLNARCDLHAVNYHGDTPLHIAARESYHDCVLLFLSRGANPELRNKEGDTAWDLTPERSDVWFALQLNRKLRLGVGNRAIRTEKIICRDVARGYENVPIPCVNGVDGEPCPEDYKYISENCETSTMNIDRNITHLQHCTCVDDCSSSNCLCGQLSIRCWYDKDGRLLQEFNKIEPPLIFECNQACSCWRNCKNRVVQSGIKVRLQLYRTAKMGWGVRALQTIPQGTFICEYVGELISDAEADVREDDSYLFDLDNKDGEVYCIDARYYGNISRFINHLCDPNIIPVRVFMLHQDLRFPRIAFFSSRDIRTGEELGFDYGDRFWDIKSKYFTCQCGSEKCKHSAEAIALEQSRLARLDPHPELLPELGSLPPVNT
T1 sequence (Q9H9B1 2-1298 limits assumed): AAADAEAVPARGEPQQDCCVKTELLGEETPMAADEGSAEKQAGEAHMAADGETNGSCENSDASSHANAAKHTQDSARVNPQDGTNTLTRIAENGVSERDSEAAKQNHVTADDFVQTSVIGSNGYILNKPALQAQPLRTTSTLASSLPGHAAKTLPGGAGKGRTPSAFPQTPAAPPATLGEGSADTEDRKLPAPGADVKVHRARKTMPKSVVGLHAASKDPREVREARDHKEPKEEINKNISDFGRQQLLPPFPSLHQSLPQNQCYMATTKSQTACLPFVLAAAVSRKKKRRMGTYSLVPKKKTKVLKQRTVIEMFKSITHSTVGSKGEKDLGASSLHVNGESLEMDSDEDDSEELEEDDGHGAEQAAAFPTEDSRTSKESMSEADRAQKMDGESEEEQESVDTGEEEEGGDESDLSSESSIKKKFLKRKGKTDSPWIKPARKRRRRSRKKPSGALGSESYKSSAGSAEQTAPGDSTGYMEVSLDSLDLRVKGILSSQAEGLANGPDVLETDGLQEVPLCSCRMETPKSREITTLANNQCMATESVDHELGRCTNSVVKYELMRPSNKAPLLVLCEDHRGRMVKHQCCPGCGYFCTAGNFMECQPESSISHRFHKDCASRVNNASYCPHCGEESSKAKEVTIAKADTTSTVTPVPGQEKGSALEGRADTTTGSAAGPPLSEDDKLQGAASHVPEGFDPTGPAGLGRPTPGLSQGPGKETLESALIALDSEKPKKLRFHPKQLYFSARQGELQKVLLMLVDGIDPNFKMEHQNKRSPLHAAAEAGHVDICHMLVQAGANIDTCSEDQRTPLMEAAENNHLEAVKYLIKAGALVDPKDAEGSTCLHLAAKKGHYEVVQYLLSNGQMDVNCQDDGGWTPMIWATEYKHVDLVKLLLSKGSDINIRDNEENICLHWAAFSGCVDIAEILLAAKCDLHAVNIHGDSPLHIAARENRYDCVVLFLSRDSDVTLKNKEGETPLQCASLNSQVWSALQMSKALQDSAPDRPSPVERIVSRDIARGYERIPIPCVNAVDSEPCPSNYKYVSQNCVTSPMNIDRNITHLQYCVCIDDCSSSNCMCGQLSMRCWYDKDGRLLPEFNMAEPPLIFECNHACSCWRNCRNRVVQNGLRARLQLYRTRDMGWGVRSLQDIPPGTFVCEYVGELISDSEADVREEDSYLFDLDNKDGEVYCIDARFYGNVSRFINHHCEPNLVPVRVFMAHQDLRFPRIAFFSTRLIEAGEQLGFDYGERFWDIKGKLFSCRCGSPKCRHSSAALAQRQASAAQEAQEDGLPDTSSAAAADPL


Tests used:
3×MBT domain of L3MBTL1 = test: Triple SILAC pull-down, 3xMBT/3xMBTD355N ratio (cytoplasmic, nuclear and chromatin fractions of 293T cells); type: binding, human; details: for 3xMBT/D355N UNC Heavy: experiment with UNC0638 in heavy SILAC media; for 3xMBT/D355N UNC Light: experiment with UNC0638 in light SILAC media;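 on all read-outs here: proteins quantified with MaxQuant, requiring at least two unique peptides and quantification in both label directions, normalized to the mean of proteins from a digested loading control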
G9a and GLP = target: T1, G9a and GLP; test: Triple SILAC pull-down after UNC0638 treatment of 293T cells, DMSO/UNC0638 ratio of protein captured by 3×MBT; type: cell-based; design: endogenous in cells; host or cells: HEK 293T; details: for Relative to UNC0638 UNC Light: UNC0638 in light SILAC media; for Relative to UNC0638 Average: average of UNC Light and UNC Heavy experiments; for Relative to UNC0638 UNC Heavy: UNC0638 in heavy SILAC media;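 on all read-outs here: mass spectrometry (Q-Exactive) SILAC quantitation, DMSO/UNC0638 ratio computed after subtracting 3×MBTD355N mutant pull-down background, only proteins with at least twofold 3×MBT over mutant signal considered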
[1] = SILAC ratio 3xMBT vs 3xMBTD355N pull-down, 293T cells, all values in log base 2
[2] = SILAC ratio, pull-down 3xMBT vs 3xMBTD355N
[3] = SILAC ratio DMSO/UNC0638 of protein pulled down with 3xMBT

Molecule | 3xMBT/D355N UNC Heavy (3×MBT domain of L3MBTL1; [1]) | 3xMBT/D355N UNC Light (3×MBT domain of L3MBTL1; [1]) | Relative to UNC0638 UNC Light (G9a and GLP; SILAC ratio DMSO relative to UNC0638, pull-down with 3xMBT, all values in log base 2) | Relative to UNC0638 Average (G9a and GLP; all values in log base 2) | 3xMBT/D355N UNC Heavy (3×MBT domain of L3MBTL1; [2]) | 3xMBT/D355N UNC Light (3×MBT domain of L3MBTL1; [2]) | Relative to UNC0638 UNC Heavy (G9a and GLP; [3]) | Relative to UNC0638 UNC Light (G9a and GLP; [3]) | Relative to UNC0638 Average (G9a and GLP) | Candidate G9a/GLP target (G9a and GLP; reduced association with 3xMBT after UNC0638 treatment)
CHEK1 (protein, UniProt O14757 1-476, looked up) Serine/threonine-protein …: MAVPFVEDWDLVQTLGEGAYGEVQLAVNRVTEEAVAVKIVDMKRAVDCPENIKKEICINKMLNHENVVKFYGHRREGNIQYLFLEYCSGGELFDRIEPDIGMPEPDAQRFFHQLMAGVVYLHGIGITHRDIKPENLLLDERDNLKISDFGLATVFRYNNRERLLNKMCGTLPYVAPELLKRREFHAEPVDVWSCGIVLTAMLAGELPWDQPSDSCQEYSDWKEKKTYLNPWKKIDSAPLALLHKILVENPSARITIPDIKKDRWYNKPLKKGAKRPRVTSGGVSESPSGFSKHIQSNLDFSPVNSASSEENVKYSSSQPEPRTGLSLWDTSPSYIDKLVQGISFSQPTCPDHMLLNSQLLGTPGSSQNPWQRLVKRMTRFFTKLDADKSYQCLKETCEKLGYQWKKSCMNQVTISTTDRRNNKLIFKVNLLEMDDKILVDFRLSKGDGLEFKRHFLKIKGKLIDIVSSQKIWLPAT | 0.09 log base 2 | 0.46 log base 2 | −0.99 log base 2 | −0.99 log base 2 | – | – | – | – | – | –
WDR70 (protein, UniProt Q9NW82 1-654, looked up) WD repeat-containing protein …: MERSGPSEVTGSDASGPDPQLAVTMGFTGFGKKARTFDLEAMFEQTRRTAVERSRKTLEAREKEEEMNREKELRRQNEDIEPTSSRSNVVRDCSKSSSRDTSSSESEQSSDSSDDELIGPPLPPKMVGKPVNFMEEDILGPLPPPLNEEEEEAEEEEEEEEEEENPVHKIPDSHEITLKHGTKTVSALGLDPSGARLVTGGYDYDVKFWDFAGMDASFKAFRSLQPCECHQIKSLQYSNTGDMILVVSGSSQAKVIDRDGFEVMECIKGDQYIVDMANTKGHTAMLHTGSWHPKIKGEFMTCSNDATVRTWEVENPKKQKSVFKPRTMQGKKVIPTTCTYSRDGNLIAAACQNGSIQIWDRNLTVHPKFHYKQAHDSGTDTSCVTFSYDGNVLASRGGDDSLKLWDIRQFNKPLFSASGLPTMFPMTDCCFSPDDKLIVTGTSIQRGCGSGKLVFFERRTFQRVYEIDITDASVVRCLWHPKLNQIMVGTGNGLAKVYYDPNKSQRGAKLCVVKTQRKAKQAETLTQDYIITPHALPMFREPRQRSTRKQLEKDRLDPLKSHKPEPPVAGPGRGGRVGTHGGTLSSYIVKNIALDKTDDSNPREAILRHAKAAEDSPYWVSPAYSKTQPKTMFAQVESDDEEAKNEPEWKKRKI | – | – | – | – | 2.21 log base 2 | 2.93 log base 2 | 0.94 log base 2 | −0.18 log base 2 | 0.38 log base 2 | –
SEPT7 (protein, UniProt Q16181 2-437, looked up) Septin-7: SVSARSAAAEERSVNSSTMVAQQKNLEGYVGFANLPNQVYRKSVKRGFEFTLMVVGESGLGKSTLINSLFLTDLYSPEYPGPSHRIKKTVQVEQSKVLIKEGGVQLLLTIVDTPGFGDAVDNSNCWQPVIDYIDSKFEDYLNAESRVNRRQMPDNRVQCCLYFIAPSGHGLKPLDIEFMKRLHEKVNIIPLIAKADTLTPEECQQFKKQIMKEIQEHKIKIYEFPETDDEEENKLVKKIKDRLPLAVVGSNTIIEVNGKRVRGRQYPWGVAEVENGEHCDFTILRNMLIRTHMQDLKDVTNNVHYENYRSRKLAAVTYNGVDNNKNKGQLTKSPLAQMEEERREHVAKMKKMEMEMEQVFEMKVKEKVQKLKDSEAELQRRHEQMKKNLEAQHKELEEKRRQFEDEKANWEAQQRILEQQNSSRTLEKNKKKGKIF | – | – | – | – | 2.75 log base 2 | 2.54 log base 2 | 0.50 log base 2 | 0.26 log base 2 | 0.38 log base 2 | –
HNRNPL (protein, UniProt P14866 1-589, looked up) Heterogeneous nuclear …: MSRRLLPRAEKRRRRLEQRQQPDEQRRRSGAMVKMAAAGGGGGGGRYYGGGSEGGRAPKRLKTDNAGDQHGGGGGGGGGAGAAGGGGGGENYDDPHKTPASPVVHIRGLIDGVVEADLVEALQEFGPISYVVVMPKKRQALVEFEDVLGACNAVNYAADNQIYIAGHPAFVNYSTSQKISRPGDSDDSRSVNSVLLFTILNPIYSITTDVLYTICNPCGPVQRIVIFRKNGVQAMVEFDSVQSAQRAKASLNGADIYSGCCTLKIEYAKPTRLNVFKNDQDTWDYTNPNLSGQGDPGSNPNKRQRQPPLLGDHPAEYGGPHGGYHSHYHDEGYGPPPPHYEGRRMGPPVGGHRRGPSRYGPQYGHPPPPPPPPEYGPHADSPVLMVYGLDQSKMNCDRVFNVFCLYGNVEKVKFMKSKPGAAMVEMADGYAVDRAITHLNNNFMFGQKLNVCVSKQPAIMPGQSYGLEDGSCSYKDFSESRNNRFSTPEQAAKNRIQHPSNVLHFFNAPLEVTEENFFEICDELGVKRPSSVKVFSGKSERSSSGLLEWESKSDALETLGFLNHYQMKNPNGPYPYTLKLCFSTAQHAS | – | – | – | – | 1.15 log base 2 | 1.40 log base 2 | 0.36 log base 2 | 0.41 log base 2 | 0.38 log base 2 | ✓
